Here are results for five substances from patent publication US20250129160A1.

Assay [1] deals with cynomolgus monkey CCR8 (Chinese origin) (cynomolgus monkey). Put plainly: flow cytometry on Cy CCR8+ CHO.
Assay [2] addresses cynomolgus monkey CCR8 (T4R), Mauritian origin (cynomolgus monkey). Put plainly: flow cytometry on Cy CCR8 (T4R)+ CHO.
In assay [3] the target is CCR8 P_1-12 peptide construct (human). Put plainly: flow cytometry, peptide construct on streptavidin beads.
Assay [4] has as its target CCR8 P_1-35 peptide construct (full-length N-terminal peptide of human CCR8) (human). The assay is described as above.
Assay [5] deals with CCR8 P_13-24 peptide construct (human). The description is as above.
The target of assay [6] is CCR8 P_19-30 peptide construct (human). The description is as above.
Assay [7] has as its target T1, CCR8 P_25-35 peptide construct (human).
T1 sequence (chain, BAP biotinylated in vivo): CDAELIQTNGK
The assay is described as above.

The target of assay [8] is CCR8 P_7-18 peptide construct (human). Described as above.
Assay [9] has as its target human CCR8 (human) (UniProt P51685). Briefly: flow cytometry on hu CCR8+ CHO.
Assay [10] shares this target. Briefly: flow cytometry on HUT-78 (CCR8+/CD3+).
Assay [11] shares this target. Put plainly: flow cytometry on HUT-78 (CCR8+/CD3-).
Assay [12] deals with human CD3 (human) (UniProt P07766). Briefly: flow cytometry on HPB-all.
Chain of human CD3 (human) (P07766 23-207): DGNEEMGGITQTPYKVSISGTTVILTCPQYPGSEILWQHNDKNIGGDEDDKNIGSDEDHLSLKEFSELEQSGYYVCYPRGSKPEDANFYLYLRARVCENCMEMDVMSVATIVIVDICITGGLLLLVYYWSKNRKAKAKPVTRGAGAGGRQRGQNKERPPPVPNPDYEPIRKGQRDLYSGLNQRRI
Assay [13] addresses cynomolgus CD3 (cynomolgus) (UniProt Q95LI5). Put plainly: flow cytometry on LnPx4119.
The target of assay [14] is human CD3 (human) (UniProt P07766). Briefly: flow cytometry on HUT-78 (CCR8+/CD3+).

Chain of anti-CCR8 antibody clone 433H (BD 747578) (VH): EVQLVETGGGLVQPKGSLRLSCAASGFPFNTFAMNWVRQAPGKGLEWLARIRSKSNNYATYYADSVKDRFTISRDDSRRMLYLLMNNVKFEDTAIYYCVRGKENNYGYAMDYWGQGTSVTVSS
Chain of anti-CCR8 antibody clone 433H (BD 747578) (VL): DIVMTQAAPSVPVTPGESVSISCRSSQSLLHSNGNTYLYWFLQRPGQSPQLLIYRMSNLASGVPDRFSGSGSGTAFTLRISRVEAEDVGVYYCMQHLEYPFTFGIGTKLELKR
Chain of cynomolgus monkey CCR8 (T4R), Mauritian origin (cynomolgus monkey) (O97665 other isoform, or with tags, fused parts or gaps): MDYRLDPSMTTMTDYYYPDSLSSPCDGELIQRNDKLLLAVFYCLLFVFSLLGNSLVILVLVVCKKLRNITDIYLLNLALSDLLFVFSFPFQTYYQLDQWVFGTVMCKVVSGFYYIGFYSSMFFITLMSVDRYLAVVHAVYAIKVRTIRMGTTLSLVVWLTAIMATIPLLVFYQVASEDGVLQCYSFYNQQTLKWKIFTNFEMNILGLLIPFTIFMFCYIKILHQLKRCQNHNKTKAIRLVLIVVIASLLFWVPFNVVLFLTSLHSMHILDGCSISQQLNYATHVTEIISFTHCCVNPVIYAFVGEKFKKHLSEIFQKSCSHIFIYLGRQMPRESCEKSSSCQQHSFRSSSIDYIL
Chain of cynomolgus monkey CCR8 (Chinese origin) (cynomolgus monkey) (O97665 other isoform, or with tags, fused parts or gaps): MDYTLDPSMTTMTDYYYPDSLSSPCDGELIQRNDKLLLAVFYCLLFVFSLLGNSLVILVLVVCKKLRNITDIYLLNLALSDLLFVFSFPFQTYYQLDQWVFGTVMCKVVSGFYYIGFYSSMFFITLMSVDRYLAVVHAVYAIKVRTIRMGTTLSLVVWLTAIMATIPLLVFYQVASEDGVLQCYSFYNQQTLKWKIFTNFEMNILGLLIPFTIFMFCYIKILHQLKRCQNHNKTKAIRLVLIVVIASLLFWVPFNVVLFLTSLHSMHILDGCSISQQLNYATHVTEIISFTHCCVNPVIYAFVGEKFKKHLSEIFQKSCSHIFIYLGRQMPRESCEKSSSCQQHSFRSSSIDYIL
Chain of cynomolgus CD3 (cynomolgus) (Q95LI5 22-198): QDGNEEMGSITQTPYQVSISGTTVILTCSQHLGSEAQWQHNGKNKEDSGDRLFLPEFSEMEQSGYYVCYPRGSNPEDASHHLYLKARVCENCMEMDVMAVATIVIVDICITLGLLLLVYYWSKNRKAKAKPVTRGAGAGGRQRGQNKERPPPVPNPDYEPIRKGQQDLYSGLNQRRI

“anti-CCR8 antibody clone 433H (BD 747578)”: the mean BL2 of the sample/mean BL2 of the secondary antibody control was determined as 136 in [1] and 106 in assay [2]. Further, the Median Fluorescence of Sample/Median Fluorescence of Negative Control in [3] was found to be 0.9; in assay [4] it was 290; in assay [5], 300; in assay [6], 0.9; in [7], 0.9; in assay [8] it was 0.9.
On to “anti-CCR8 antibody clone L263G8 (BioLegend, 360602)”, for which the results for the mean BL2 of the sample/mean BL2 of the secondary antibody control in assay [9], in assay [10] and in [11] were 40, 9 and 6, respectively. For the same substance, the Median Fluorescence of Sample/Median Fluorescence of Negative Control in assay [3] turned out to be 0.9; in [4] it was 751; in [5] it was 285; in assay [6], 0.9; in assay [7], 0.9; in [8], 0.9.
Regarding “anti-FLAG antibody (clone M2, Sigma F3165/F1804)”, the Median Fluorescence of Sample/Median Fluorescence of Negative Control in [3] turned out to be 596; in assay [4] it was 522; in assay [5], 628; in assay [6] it was 590; in [7], 582; in assay [8], 589.
“anti-V5 antibody (clone SV5-Pk1; AbD Serotec, MCA 1360)”: the Median Fluorescence of Sample/Median Fluorescence of Negative Control in assay [3] is 1090; in [4], 953; in assay [5] it was 1300; in [6] it was 1020; in [7], 1090; in assay [8] it was 1090.
“control TCE molecule (CD3-based TCE molecule recognizing an irrelevant target antigen) (bispecific antibody)”: the mean BL2 of the sample/mean BL2 of the secondary antibody control was 398 in assay [12], 75 in assay [13] and 72 in assay [14].
